Test results reported in the supplement of paper PMC9732359.
± gives the uncertainty stated by the source.

Experiment: protein stability index of a GFP-peptide fusion (yeast GPS) (PSI 1-4); higher = more stable; sorted into four equal gates, so the index is relative within each strain
How it was run: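 Tiled 17-residue yeast protein peptides were fused downstream of GFP in a plasmid that also expresses Cherry, and the pooled library was carried in yeast. Mid-log cultures in leucine-free medium were sorted into four equal gates by GFP/Cherry fluorescence ratio, and plasmids from each gate were PCR-amplified and Illumina-sequenced, with reads assigned to strains by barcodes. The protein stability index for each peptide was each gate's read frequency times its gate number, summed.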

Sequence	protein stability index (doa10∆)	protein stability index (pdr5∆)	protein stability index (san1∆)	protein stability index (ubr1∆)
QLPANMVHLYSIVEECD [RPC17]	1.99 ± 0.044	1.98 ± 0.045	1.86 ± 0.065	2.02 ± 0.04
TDQILQLLKEDSEKRNK [RRP45]	3.12 ± 0.16	3.3 ± 0.29	3.52 ± 0.098	3.36 ± 0.11
MDFANLWVFQAFTCFCI [SRB8]	1.55 ± 0.054	1.2 ± 0.043	1.16 ± 0.08	1.21 ± 0.042
PLSNIKALLFFNNEKET [RPN12]	1.46 ± 0.056	1.4 ± 0.062	1.2 ± 0.088	1.13 ± 0.053
KQLTLLRSKLFQFKLLQ [SMC4]	1.93 ± 0.051	1.88 ± 0.048	1.69 ± 0.064	2.34 ± 0.038
DATTWRYSMSEQFPFYL [IRR1]	3.09 ± 0.098	2.94 ± 0.066	3.06 ± 0.063	3.07 ± 0.049
THSQTGTQQSNMYTSTQ [SIR4]	3.03 ± 0.061	3.16 ± 0.046	2.93 ± 0.051	3.08 ± 0.055
KYPLGHFVRDLGTIESA [DIS3]	2.56 ± 0.097	2.43 ± 0.1	2.85 ± 0.15	2.58 ± 0.19
SPHGLINLNVDDDILII [SRB4]	3.1 ± 0.074	3.2 ± 0.075	3.11 ± 0.054	3.05 ± 0.045
LYAIKKVTLNKETQQYE [BRR2]	3.03 ± 0.15	3.21 ± 0.13	2.99 ± 0.094	3.36 ± 0.081
QEFDSELSKEEKERLES [SMC3]	2.97 ± 0.12	2.96 ± 0.16	2.98 ± 0.058	3.06 ± 0.081
AHEISQGVYGAVYETLI [BRR2]	3.33 ± 0.082	3.11 ± 0.07	3.16 ± 0.061	3.37 ± 0.082
LERVKRIMEKSVILSVI [YML031W/NDC1]	2.71 ± 0.086	2.17 ± 0.094	1.98 ± 0.096	1.61 ± 0.049
LYHLVIMKFQSLSDNDL [ECM29]	–	1.65 ± 0.25	–	3.28 ± 0.25
MNLDFDIEEGPITSKSW [MCD1]	2.85 ± 0.15	3.16 ± 0.093	3.17 ± 0.072	3.49 ± 0.18
DDAMEINGEDPANNHQL [SMX2]	3.38 ± 0.076	3.02 ± 0.086	3.3 ± 0.047	3.44 ± 0.071
DLIAEQVVTDYNILGNL [SSN2]	2.52 ± 0.074	3.11 ± 0.077	2.28 ± 0.11	2.21 ± 0.063
IDTDLFGAPNNPNSTAI [YGL172W/NUP49]	2.8 ± 0.075	2.78 ± 0.063	2.91 ± 0.053	2.59 ± 0.053
SEIIDTNTSKQFQKARN [SRB8]	2.71 ± 0.12	3.01 ± 0.063	3.16 ± 0.056	2.92 ± 0.095
NGGNSVITLAEYEKRNH [SRP68]	3.57 ± 0.12	3.28 ± 0.14	3.44 ± 0.1	3.38 ± 0.12
PDTAIDSQMDEASGTPD [GRR1]	2.97 ± 0.062	3.06 ± 0.071	2.89 ± 0.064	3 ± 0.055
DIYKSHLDNSKSVFSSA [RPN1]	2.69 ± 0.056	2.77 ± 0.041	2.67 ± 0.051	2.66 ± 0.063
PLSAGFNYGKLPLPPSV [SIN4]	2.75 ± 0.074	2.9 ± 0.068	2.84 ± 0.038	2.93 ± 0.051
QDSMSKGTGEESNDRIN [YGR119C/NUP57]	3.33 ± 0.098	3.22 ± 0.15	3.23 ± 0.09	3.38 ± 0.057
HKQVYPLRMETIPILES [DSN1]	1.73 ± 0.049	2.37 ± 0.05	2.24 ± 0.066	2.14 ± 0.038
KIHSILPVMESLDSCTA [YJR042W/NUP85]	2.24 ± 0.09	2.23 ± 0.079	2 ± 0.13	2.24 ± 0.068
IVSPQSNKPCMGIVQDT [RPO21]	1.74 ± 0.064	1.68 ± 0.047	1.76 ± 0.098	1.58 ± 0.046
